Measurements taken from paper PMC9605497, “Potential of Epidermal Growth Factor-like Peptide from the Sea Cucumber Stichopus horrens to Increase the Growth of Human Cells: In Silico Molecular Docking Approach” (Marine Drugs, 2022).

Target: T1, human epidermal growth factor receptor (human (endogenous in melanoma cells …, UniProt P00533 25-1210))
T1 construct: epidermal growth factor receptor, human, as present on human melanoma cells (CRL-1872); The cells were not transfected; also called hEGFR; EGFR; source: endogenous, human melanoma cells (CRL-1872, ATCC), formalin-fixed in a 96-well plate
Test: ligand binding assay on fixed cells (biotinylated ligand, NeutrAvidin-HRP, ABTS, absorbance at 405 nm); formalin-fixed human melanoma cells in a 96-well plate; biotinylated peptide at 10, 50 and 500 nM in MEM with 0.1% BSA and 200 mM HEPES, 37 °C, 1 h; washes with cold PBS and 0.3 M NaCl; triplicates
Details: one partner purified

B1: Recombinant human EGF (ligand)
chain: MNSDSECPLSHDGYCLHDGVCMYIEALDKYACNCVVGYIGERCQYRDLKWWELR
modifications: biotin (conjugated with NHS-biotin; sites not stated)
notes: also called rhEGF; source: bought: Thermo Scientific; biotinylated with NHS-biotin
  increase of the relative binding percentage on a tenfold higher concentration: 4%
